Measurements taken from paper PMC10846153.

System: T1, OxyR (Reut_A2805) (Cupriavidus pinatubonensis), ORF:7651349a
T1 sequence: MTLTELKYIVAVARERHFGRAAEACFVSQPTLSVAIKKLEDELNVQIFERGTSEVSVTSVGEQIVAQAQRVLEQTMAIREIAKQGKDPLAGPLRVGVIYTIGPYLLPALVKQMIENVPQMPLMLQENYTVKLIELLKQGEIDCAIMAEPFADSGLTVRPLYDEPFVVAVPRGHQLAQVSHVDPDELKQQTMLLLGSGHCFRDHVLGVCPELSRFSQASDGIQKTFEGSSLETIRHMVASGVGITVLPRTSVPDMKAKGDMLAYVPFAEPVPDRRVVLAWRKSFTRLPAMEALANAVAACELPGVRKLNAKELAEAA
Assay: EMSA
Details: EMSA: 20 mM Tris pH 7.4, 4 mM MgCl2, 100 mM NaCl, 10% glycerol; 20 min at room temperature; 6% native PAGE with 5% glycerol in 0.5x TBE

AAATGCATCGCTCTCAGAATACCCAAAAATGAGCAATTCGATGCCATCGACTTTCGCGTTTCTGGCAACTTTGCGCGAACTGTAGAAAATACCGGATTACAGGTATTGTCCTGTCCAAGTCGCACAGCGTAAATTTCGCCTGACTTCCGTTGCGCAACCAACAGAAACACAAAGATT (double strand) [PT6SS1]
binding: binds
